The series “crystal structure” deals with the molecule itself. The series is described as follows: crystal structure.
Series [1] addresses T1, TPST2ΔC18 (38 kDa core domain of human tyrosylprotein sulfotransferase-2, Gly43–Leu359) (human, UniProt O60704 43-359).
T1 sequence (looked up): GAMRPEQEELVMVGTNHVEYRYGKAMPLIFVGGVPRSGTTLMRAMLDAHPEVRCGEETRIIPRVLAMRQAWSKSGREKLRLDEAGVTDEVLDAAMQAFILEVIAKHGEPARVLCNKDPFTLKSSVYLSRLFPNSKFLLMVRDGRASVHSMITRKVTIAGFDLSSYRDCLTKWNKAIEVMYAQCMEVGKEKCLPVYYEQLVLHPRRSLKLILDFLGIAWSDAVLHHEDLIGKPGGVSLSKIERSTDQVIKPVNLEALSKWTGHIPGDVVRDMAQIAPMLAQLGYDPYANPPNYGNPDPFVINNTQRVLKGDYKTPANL
The series can be described thus: crystal structure.

Results on 2 molecules are retold here after paper PMC3601584 (Nature communications, 2013).

B1: TPST2 (proposed catalytic domain of human tyrosylprotein sulfotransferase-2, Gly43-Ser377) (domain or fragment, UniProt O60704 43-377, looked up)
chain: GAMRPEQEELVMVGTNHVEYRYGKAMPLIFVGGVPRSGTTLMRAMLDAHPEVRCGEETRIIPRVLAMRQAWSKSGREKLRLDEAGVTDEVLDAAMQAFILEVIAKHGEPARVLCNKDPFTLKSSVYLSRLFPNSKFLLMVRDGRASVHSMITRKVTIAGFDLSSYRDCLTKWNKAIEVMYAQCMEVGKEKCLPVYYEQLVLHPRRSLKLILDFLGIAWSDAVLHHEDLIGKPGGVSLSKIERSTDQVIKPVNLEALSKWTGHIPGDVVRDMAQIAPMLAQLGYDPYANPPNYGNPDPFVINNTQRVLKGDYKTPANLKGYFQVNQNSTSSHLGSS
On to B1, for which the binding result in “crystal structure” is recorded as “binds”.
With EDFEDYEFD [C4P5Y3 peptide (substrate peptide derived from human complement C4)], in series [1], the binding result is recorded as “binds”.
